Data on 9 molecules can be found in publication PMC2997501, “Different Residues on the Surface of the Methanothermobacter thermautotrophicus MCM Helicase Interact with Single- and Double-Stranded DNA” (Archaea, 2010).

Substitutions are numbered along the chain they refer to. Numbers in names are those of the source.

One data set has as its target T1, MCM Q176A (Methanothermobacter thermautotrophicus, UniProt O27798 1-666, Q176A).
T1 sequence: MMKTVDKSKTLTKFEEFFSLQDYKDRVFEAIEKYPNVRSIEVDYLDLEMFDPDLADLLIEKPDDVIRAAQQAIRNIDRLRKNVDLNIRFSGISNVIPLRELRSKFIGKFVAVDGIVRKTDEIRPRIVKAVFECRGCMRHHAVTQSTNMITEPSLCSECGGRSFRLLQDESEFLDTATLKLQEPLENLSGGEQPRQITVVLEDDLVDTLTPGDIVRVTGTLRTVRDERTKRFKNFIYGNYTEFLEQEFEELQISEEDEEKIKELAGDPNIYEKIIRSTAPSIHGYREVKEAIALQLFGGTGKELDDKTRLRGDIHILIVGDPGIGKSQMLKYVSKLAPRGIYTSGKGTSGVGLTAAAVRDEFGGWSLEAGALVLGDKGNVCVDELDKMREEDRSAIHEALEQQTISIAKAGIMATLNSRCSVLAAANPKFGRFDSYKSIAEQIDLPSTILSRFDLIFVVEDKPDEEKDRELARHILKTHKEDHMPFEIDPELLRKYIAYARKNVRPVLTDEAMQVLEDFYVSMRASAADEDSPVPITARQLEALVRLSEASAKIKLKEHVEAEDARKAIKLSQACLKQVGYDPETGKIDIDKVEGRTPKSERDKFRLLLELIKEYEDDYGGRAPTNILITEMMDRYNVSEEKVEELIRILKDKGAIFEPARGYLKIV
The experiment in a line: filter binding; 10 mM Mg2+, no ATP; 25 mM Hepes-NaOH pH 7.5, 2 mM DTT, 10 mM MgCl2, 100 ug/ml BSA, 50 fmol 32P-DNA in 20 ul, 10/30/90 nM MCM monomer (25 nM for the ATP test), 60 C, 10 min; nitrocellulose filter washed with 20 mM Tris-HCl pH 7.5. To be noted: protein: recombinant; tags: C-terminal His6; chain copies: 6; label: 32P (T4 PNK, 5' end); blunt.

Another data set concerns the target T2, MCM P210G (Methanothermobacter thermautotrophicus, UniProt O27798 1-666, P210G).
T2 sequence: T1 sequence with A176Q, P210G
Described as above. The conditions noted are these: protein: recombinant; tags: C-terminal His6; chain copies: 6; label: 32P (T4 PNK, 5' end); blunt.

A further data set addresses T3, MCM G218A (Methanothermobacter thermautotrophicus, UniProt O27798 1-666, G218A).
T3 sequence: T1 sequence with A176Q, G218A
Described as above. To be noted: protein: recombinant; tags: C-terminal His6; chain copies: 6; label: 32P (T4 PNK, 5' end); blunt.

The target in another data set is T4, MCM G211A (Methanothermobacter thermautotrophicus, UniProt O27798 1-666, G211A).
T4 sequence: T1 sequence with A176Q, G211A
The description is as above. The conditions noted are these: protein: recombinant; tags: C-terminal His6; chain copies: 6; label: 32P (T4 PNK, 5' end); blunt.

Data set [1] deals with the molecule itself. The experiment in a line: SEC; 100 micrograms of protein on a superose-6 column (HR10/30); 20 mM Tris-HCl pH 7.5, 150 mM NaCl, 10% glycerol; 22°C, 0.2 ml/min; A280; size markers thyroglobulin, ferritin, albumin, ovalbumin.

B1: 49-mer dsDNA (dsDNA)
DNA 1: GCAGATAACAGTTGTCCTGGAGAACGACCTGGTTGACACCCTCACACCC
DNA 2: GGGTGTGAGGGTGTCAACCAGGTCGTTCTCCAGGACAACTGTTATCTGC
As to B1, the binding signal in the data set with MCM Q176A was approximately 50 % reduction vs wild-type; with MCM P210G, approximately 50 % reduction vs wild-type; with MCM G218A it was approximately 25 % reduction vs wild-type; with MCM G211A, approximately 50 % reduction vs wild-type.

B2: Methanothermobacter thermautotrophicus MCM protein, wild-type (enzyme, UniProt O27798 1-666, looked up)
chain: T1 sequence with A176Q
notes: MCM helicase of Methanothermobacter thermautotrophicus, full-length enzyme, cloned in pET-21a (NdeI/XhoI); the text speaks of hexamers, dodecamers and filaments in equilibrium (cited work); also called wild-type enzyme; minichromosome maintenance helicase; source: E. coli DE3 codon plus cells, purified on a Ni-column
For B2, the binding result in data set [1] is “binds”.

B3: Methanothermobacter thermautotrophicus MCM protein, D212N mutant (enzyme, UniProt O27798 1-666, looked up)
chain: T1 sequence with A176Q, D212N
notes: MCM helicase of Methanothermobacter thermautotrophicus, derivative of the full-length enzyme; source: E. coli DE3 codon plus cells, purified on a Ni-column
Regarding B3, the binding result in data set [1] was “binds”.

B4: Methanothermobacter thermautotrophicus MCM protein, V214A mutant (enzyme, UniProt O27798 1-666, looked up)
chain: T1 sequence with A176Q, V214A
notes: as for B3
Take B4: the binding result in data set [1] was “binds”.

B5: Methanothermobacter thermautotrophicus MCM protein, Q176A mutant (enzyme, UniProt O27798 1-666, looked up)
chain: T1 sequence
notes: as for B3
B5: the binding result in data set [1] was “binds”.

B6: Methanothermobacter thermautotrophicus MCM protein, G211A mutant (enzyme, UniProt O27798 1-666, looked up)
chain: T1 sequence with A176Q, G211A
notes: as for B3
Regarding B6, in data set [1], the binding result was “binds”.

B7: Methanothermobacter thermautotrophicus MCM protein, G218A mutant (enzyme, UniProt O27798 1-666, looked up)
chain: T1 sequence with A176Q, G218A
notes: as for B3
For B7, in data set [1], the binding result is given as “binds”.

B8: Methanothermobacter thermautotrophicus MCM protein, PG210,211GA double mutant (enzyme, UniProt O27798 1-666, looked up)
chain: T1 sequence with A176Q, P210G, G211A
notes: as for B3
With B8, in data set [1], the binding result is listed as “binds”.

B9: Methanothermobacter thermautotrophicus MCM protein, P210G mutant (enzyme, UniProt O27798 1-666, looked up)
chain: T1 sequence with A176Q, P210G
notes: as for B3
Take B9: the binding result in data set [1] is “binds”.
